This is an account of results in article PMC11930087, “Mobility of four structural regions drives isoform-specific properties of photoenzyme LPOR in plants” (The Journal of Biological Chemistry, 2025).

The series concerns the molecule itself. Nature of the series: negative-stain transmission electron microscopy; reaction mixtures of 5 μM Pchlide, 15 μM AtPORB, 200 μM NADPH and either 100 μM lowMGDG lipid mixture (2.5 mol% MGDG, 47.5 mol% PG, 50 mol% DGDG) or OPT lipids; filaments seen.

B1: light-dependent protochlorophyllide oxidoreductase B from Arabidopsis thaliana (enzyme)
chain: QTAATSSPTVTKSVDGKKTLRKGNVVVTGASSGLGLATAKALAETGKWNVIMACRDFLKAERAAKSVGMPKDSYTVMHLDLASLDSVRQFVDNFRRTETPLDVLVCNAAVYFPTAKEPTYSAEGFELSVATNHLGHFLLARLLLDDLKKSDYPSKRLIIVGSITGNTNTLAGNVPPKANLGDLRGLAGGLNGLNSSAMIDGGDFDGAKAYKDSKVCNMLTMQEFHRRFHEETGVTFASLYPGCIASTGLFREHIPLFRALFPPFQKYITKGYVSETESGKRLAQVVSDPSLTKSGVYWSWNNASASFENQLSEEASDVEKARKVWEISEKLVGLA
notes: LPOR B of Arabidopsis thaliana, P21218; probably without the transit peptide, as the constructs cloned here; In the assays it stood with Pchlide, NADPH and lipids; also called AtPORB; LPOR
For B1, the binding result was “binds”.
